This is an account of results in patent publication US20120208232, “Cell-Free Synthesis of Active Reprogramming Transcription Factors” (published 2012).

The target of data set [1] is R9-Oct3/4 (Homo sapiens, UniProt Q01860 Q01860:1-360). In words: NoShift plate assay, 0.5 uM DNA; reduced by unlabelled consensus competitor. To be noted: protein: synthetic; tags: N-terminal CAT9-StrepTagII-Xa-R9-His6-G4S fusion, E. coli cell-free synthesis; label: biotin. How it is done: (§1) Assessment of the DNA Binding Activities of the Fusion Reprogramming Factors. The DNA-binding activities of the R9-Nanog, R9-Oct3/4, and R9-Sox2 fusion proteins were assayed by colorimetry utilizing the NoShift Transcription Factor Assay Kit (Novagen) according to the manufacturer's instructions. To assess sequence-specific binding activity, 1-2 μg of the R9-Nanog fusion protein, 2-10 μg of the R9-Oct3/4 fusion protein or 1-4 μg of the R9-Sox2 fusion protein were each incubated in […] with 0.5 μM of their respective biotinylated consensus dsDNA binding targets. […] Non-biotinylated competitor consensus dsDNA and scrambled dsDNA used to assess competitive binding were added at […]. As a positive control, recombinant human (rh) Nanog (Abcam) and rhSox (Peprotech) were used. HRP-conjugated anti-mouse immunoglobulin G was used as a secondary antibody to recognize the anti-Nanog (Abcam), anti-Oct3/4 (R&D Systems), and anti-Sox2 (R&D Systems) mouse monoclonal antibodies. All assays were performed in duplicate. Binding activity was measured via colorimetric absorbance at 450 nm on a Tecan multiwell spectrophotometer using 3,3,5,5-tetramethylbenzidine as the substrate.
(§2) The NoShift Assay (Novagen) was used to verify the DNA binding activities of R9-Nanog, R9-Sox2, and R9-Oct3/4. […]

Data set [2] has as its target rhNanog (Homo sapiens, UniProt Q9H9S0 Q9H9S0:1-305). In words: NoShift plate assay, positive control. To be noted: tags: Abcam; label: biotin. As to the method:
as §1, §2

Data set [3] addresses rhSox2 (Homo sapiens, UniProt P48431 P48431:1-317). In words: NoShift plate assay, positive control. To be noted: tags: Peprotech; label: biotin. How it is done:
as §1, §2

Data set [4] has as its target R9-Sox2 (Homo sapiens, UniProt P48431 P48431:1-317). In words: NoShift plate assay, 0.5 uM DNA; reduced by unlabelled consensus competitor. To be noted: protein: synthetic; tags: N-terminal CAT9-StrepTagII-Xa-R9-His6-G4S fusion, E. coli cell-free synthesis; label: biotin. As to the method: as §1, §2

Sequence of R9-Oct3/4 (Q01860 whole entry, the tested form may be a part, one chain of several): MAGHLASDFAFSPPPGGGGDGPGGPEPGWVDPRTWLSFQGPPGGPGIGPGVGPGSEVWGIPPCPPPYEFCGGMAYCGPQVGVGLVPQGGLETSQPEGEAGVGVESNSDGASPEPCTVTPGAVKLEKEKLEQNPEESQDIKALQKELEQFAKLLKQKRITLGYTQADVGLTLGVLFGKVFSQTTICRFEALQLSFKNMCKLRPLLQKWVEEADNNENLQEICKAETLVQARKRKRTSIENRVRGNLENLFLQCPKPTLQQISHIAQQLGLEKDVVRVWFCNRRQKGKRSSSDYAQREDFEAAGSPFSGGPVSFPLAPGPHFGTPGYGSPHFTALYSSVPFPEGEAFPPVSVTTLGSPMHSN
Sequence of rhNanog (Q9H9S0 whole entry, one chain of several): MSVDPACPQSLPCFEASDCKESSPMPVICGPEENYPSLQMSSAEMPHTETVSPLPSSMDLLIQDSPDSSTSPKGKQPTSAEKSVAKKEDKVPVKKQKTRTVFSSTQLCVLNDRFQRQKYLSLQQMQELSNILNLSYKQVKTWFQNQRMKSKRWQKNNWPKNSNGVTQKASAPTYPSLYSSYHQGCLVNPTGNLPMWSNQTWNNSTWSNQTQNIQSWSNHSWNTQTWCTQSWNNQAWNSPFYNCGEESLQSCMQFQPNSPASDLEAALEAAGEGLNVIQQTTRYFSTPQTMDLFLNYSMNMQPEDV
Sequence of rhSox2 (P48431 whole entry, one chain of several): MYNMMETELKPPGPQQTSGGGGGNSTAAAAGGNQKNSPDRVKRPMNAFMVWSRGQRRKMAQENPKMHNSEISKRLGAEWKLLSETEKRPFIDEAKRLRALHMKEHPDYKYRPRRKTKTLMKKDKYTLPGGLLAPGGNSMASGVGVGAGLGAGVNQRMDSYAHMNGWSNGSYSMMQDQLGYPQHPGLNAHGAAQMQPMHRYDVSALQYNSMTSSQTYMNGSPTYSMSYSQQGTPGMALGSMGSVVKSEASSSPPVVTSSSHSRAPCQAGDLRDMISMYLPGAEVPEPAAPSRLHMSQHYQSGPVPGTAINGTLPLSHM
Sequence of R9-Sox2 (P48431 whole entry, the tested form may be a part, one chain of several): as the sequence (P48431 whole entry, one chain of several) above

B1: Oct3/4 consensus dsDNA (dsDNA)
DNA 1: GCAGAGAGATGCATGTGCCGT
DNA 2: ACGGCACATGCATCTCTCTGC
With B1, the binding result in data set [1] is on record as “binds”.

B2: Nanog consensus dsDNA (dsDNA)
DNA 1: ACCTGTTAATGGGAGCGC
DNA 2: GCGCTCCCATTAACAGGT
Turning to B2, the binding result in data set [2] is recorded as “binds”.

B3: Sox2 consensus dsDNA (dsDNA)
DNA 1: GCAGAGGACAAAGGTGCCGTG
DNA 2: CACGGCACCTTTGTCCTCTGC
On to B3, for which the binding result in data set [3] and in data set [4] was “binds” throughout.
